Measured values published in patent US20220389082A1 (CSL BEHRING LENGNAU, published 2022).

Assays:
[1] = target: T1, D′D3 albumin fusion protein (D′D3-FP), dimer (human, Covalent homodimer: the two chains are joined by disulfide bridge(s) within the D3 part (paragraph 124 names Cys-1099, Cys-1142, Cys-1222, Cys-1225, Cys-1227 in SEQ ID NO:4 numbering). N-glycosylated, …); test: SPR (Biacore T200), D′D3-FP captured on anti-albumin antibody, rVIII-SingleChain as analyte, single cycle kinetics, 25° C.
T1 construct: It was expressed in CHO K1 cells with the VWF propeptide, which is cleaved by co-transfected furin; The dimer fraction was isolated by size exclusion chromatography; The description says the dimer is a disulfide-linked homodimer; In the SPR assay it was captured on an anti-albumin antibody; also called dimeric D′D3-FP; rD′D3-FP
T1 sequence (chain, as listed by the source limits assumed, chain 1 of 2): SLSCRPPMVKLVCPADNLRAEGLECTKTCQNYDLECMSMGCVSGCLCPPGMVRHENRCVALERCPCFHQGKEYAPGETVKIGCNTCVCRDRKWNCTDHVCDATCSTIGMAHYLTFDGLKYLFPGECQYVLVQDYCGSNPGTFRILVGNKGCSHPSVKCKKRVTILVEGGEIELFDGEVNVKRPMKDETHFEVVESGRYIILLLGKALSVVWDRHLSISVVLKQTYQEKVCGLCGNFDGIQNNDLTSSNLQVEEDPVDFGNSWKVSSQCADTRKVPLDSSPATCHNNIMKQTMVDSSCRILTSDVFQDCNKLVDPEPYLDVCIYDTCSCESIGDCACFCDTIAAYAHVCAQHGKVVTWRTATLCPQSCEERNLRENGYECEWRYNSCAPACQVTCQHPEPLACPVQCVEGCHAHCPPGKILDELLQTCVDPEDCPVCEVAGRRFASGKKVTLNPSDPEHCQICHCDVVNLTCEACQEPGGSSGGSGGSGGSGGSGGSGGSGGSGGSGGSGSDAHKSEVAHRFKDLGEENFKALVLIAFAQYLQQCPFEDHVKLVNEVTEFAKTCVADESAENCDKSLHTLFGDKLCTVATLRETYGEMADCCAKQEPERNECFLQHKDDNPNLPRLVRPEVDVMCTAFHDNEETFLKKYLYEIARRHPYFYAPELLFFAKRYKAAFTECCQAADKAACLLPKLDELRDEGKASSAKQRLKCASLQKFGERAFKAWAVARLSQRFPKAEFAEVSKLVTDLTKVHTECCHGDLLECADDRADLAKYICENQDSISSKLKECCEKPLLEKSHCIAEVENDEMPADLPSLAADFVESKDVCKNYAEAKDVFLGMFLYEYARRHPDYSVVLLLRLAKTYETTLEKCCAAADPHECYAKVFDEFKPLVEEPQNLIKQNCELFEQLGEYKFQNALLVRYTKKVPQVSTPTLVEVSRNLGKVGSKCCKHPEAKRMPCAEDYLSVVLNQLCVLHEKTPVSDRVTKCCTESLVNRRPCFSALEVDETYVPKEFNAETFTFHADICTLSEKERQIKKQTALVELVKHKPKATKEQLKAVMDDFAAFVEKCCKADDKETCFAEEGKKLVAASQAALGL
T1 sequence (chain, as listed by the source limits assumed, chain 2 of 2): as the sequence (chain, as listed by the source limits assumed, chain 1 of 2) above
Experimental: (§1) An anti-albumin antibody (MA1-20124, Thermo Scientific) was covalently coupled via its N-terminus to an activated CM 3 chip by NHS (N-Hydroxysuccinimide) and EDC […], both contained in the amine coupling kit (BR1000-50) from GE Healthcare. For immobilization 3 μg/mL of the antibody were diluted in sodium acetate buffer (10 mM, pH 5.0) and the antibody solution was flown over the chip for 7 min. at a flow rate of 10 μL/min. After the immobilization procedure non-coupled dextran filaments were saturated by flowing ethanolamine solution (1 M, pH 8.3) over the chip for 5 min (at a flow rate of 10 μL/min). The aim of saturating the flow cell was to minimize unspecific binding of the analytes to the chip. A reference flow cell was set up by saturating an empty flow cell with ethanolamine by using the same procedure as above.
(§2) Dimeric and monomeric D′D3-FP proteins, respectively, were immobilized to the covalently coupled anti-albumin antibody by a flow of the D′D3-FP proteins (5 μg/mL) over the chip for 3 min (flow rate of 10 μL/min).
(§3) To create binding curves for FVIII, each D′D3-FP protein preparation was diluted in running buffer (HBS-P+: 0.1 M HEPES, 1.5 M NaCl and 0.5% v/v Surfactant P20, pH 7.4; product code BR100671, GE Healthcare) to concentrations of 0.25 nM, 0.5 nM, 1 nM, 3 nM and 4 nM. […]

[2] = target: T1, D′D3 albumin fusion protein (D′D3-FP), …; test: SPR (Biacore T200), D′D3-FP captured on anti-albumin antibody, rVIII-SingleChain as analyte, single cycle kinetics, 25° C.; D′D3-FP dimer preparation
Experimental: as §1, §2, §3

koff [1]: 0.0015 s⁻¹ | kon [1]: 4.5e+07 M⁻¹ s⁻¹ | Kd [2]: 34 pM
B1: rVIII-SingleChain (single chain Factor VIII molecule, construct dBN(64-53) of WO 2004/067566) (other)
chain: ATRRYYLGAVELSWDYMQSDLGELPVDARFPPRVPKSFPFNTSVVYKKTLFVEFTDHLFNIAKPRPPWMGLLGPTIQAEVYDTVVITLKNMASHPVSLHAVGVSYWKASEGAEYDDQTSQREKEDDKVFPGGSHTYVWQVLKENGPMASDPLCLTYSYLSHVDLVKDLNSGLIGALLVCREGSLAKEKTQTLHKFILLFAVFDEGKSWHSETKNSLMQDRDAASARAWPKMHTVNGYVNRSLPGLIGCHRKSVYWHVIGMGTTPEVHSIFLEGHTFLVRNHRQASLEISPITFLTAQTLLMDLGQFLLFCHISSHQHDGMEAYVKVDSCPEEPQLRMKNNEEAEDYDDDLTDSEMDVVRFDDDNSPSFIQIRSVAKKHPKTWVHYIAAEEEDWDYAPLVLAPDDRSYKSQYLNNGPQRIGRKYKKVRFMAYTDETFKTREAIQHESGILGPLLYGEVGDTLLIIFKNQASRPYNIYPHGITDVRPLYSRRLPKGVKHLKDFPILPGEIFKYKWTVTVEDGPTKSDPRCLTRYYSSFVNMERDLASGLIGPLLICYKESVDQRGNQIMSDKRNVILFSVFDENRSWYLTENIQRFLPNPAGVQLEDPEFQASNIMHSINGYVFDSLQLSVCLHEVAYWYILSIGAQTDFLSVFFSGYTFKHKMVYEDTLTLFPFSGETVFMSMENPGLWILGCHNSDFRNRGMTALLKVSSCDKNTGDYYEDSYEDISAYLLSKNNAIEPRSFSQNSRHPSTRQKQFNATTIPENTTLQSDQEEIDYDDTISVEMKKEDFDIYDEDENQSPRSFQKKTRHYFIAAVERLWDYGMSSSPHVLRNRAQSGSVPQFKKVVFQEFTDGSFTQPLYRGELNEHLGLLGPYIRAEVEDNIMVTFRNQASRPYSFYSSLISYEEDQRQGAEPRKNFVKPNETKTYFWKVQHHMAPTKDEFDCKAWAYFSDVDLEKDVHSGLIGPLLVCHTNTLNPAHGRQVTVQEFALFFTIFDETKSWYFTENMERNCRAPCNIQMEDPTFKENYRFHAINGYIMDTLPGLVMAQDQRIRWYLLSMGSNENIHSIHFSGHVFTVRKKEEYKMALYNLYPGVFETVEMLPSKAGIWRVECLIGEHLHAGMSTLFLVYSNKCQTPLGMASGHIRDFQITASGQYGQWAPKLARLHYSGSINAWSTKEPFSWIKVDLLAPMIIHGIKTQGARQKFSSLYISQFIIMYSLDGKKWQTYRGNSTGTLMVFFGNVDSSGIKHNIFNPPIIARYIRLHPTHYSIRSTLRMELMGCDLNSCSMPLGMESKAISDAQITASSYFTNMFATWSPSKARLHLQGRSNAWRPQVNNPKEWLQVDFQKTMKVTGVTTQGVKSLLTSMYVKEFLISSSQDGHQWTLFFQNGKVKVFQGNQDSFTPVVNSLDPPLLTRYLRIHPQSWVHQIALRMEVLGCEAQDLY
notes: also called FVIII
